The target in this assay is αvβ3 and α5β1 integrins presented on adjacent cells. As to the kind of experiment: cell-based or functional assay.

We go through four molecules from patent US20050002904A1, “Uses of vascular endothelial growth factor and type I collagen inducible protein (VCIP)” (priority 2003, published 2005).

In turn, NYRCRADDSK [mutant peptide …] gave a % cell aggregates of WT cells with … 10 nM of 92%, a % cell aggregates of WT cells with … 30 nM of 89% and a % cell aggregates of WT cells with … 50 nM of 90%.
Molecule NYRCRGDDSK [peptide …] registered a % cell aggregates of WT cells with … 10 nM of 67%, a % cell aggregates of WT cells with … 30 nM of 46% and a % cell aggregates of WT cells with … 50 nM of 28%.

B1: wild-type VCIP/PAP2b, HA-tagged, expressed from pLNCX2-VCIP-RGD, O14495 1-311 (protein)
chain: YPYDVPDYAYPYDVPDYAYPYDVPDYAMQNYKYDKAIVPESKNGGSPALNNNPRRSGSKRVLLICLDLFCLFMAGLPFLIIETSTIKPYHRGFYCNDESIKYPLKTGETINDAVLCAVGIVIAILAIITGEFYRIYYLKKSRSTIQNPYVAALYKQVGCFLFGCAISQSFTDIAKVSIGRLRPHFLSVCNPDFSQINCSEGYIQNYRCRGDDSKVQEARKSFFSGHASFSMYTMLYLVLYLQARFTWRGARLLRPLLQFTLIMMAFYTGLSRVSDHKHHPSDVLAGFAQGALVACCIVFFVSDLFKTKTTLSLPAPAIRKEILSPVDIIDRNNHHNMM
Molecule B1 displayed a % cell aggregates, HEK cells stably expressing pLNCX2-VCIP-RGD (WT), no substance of 94%.

B2: mutant VCIP/PAP2b-RGE, HA-tagged, expressed from pLNCX2-VCIP-RGE, O14495 1-311 (protein)
chain: YPYDVPDYAYPYDVPDYAYPYDVPDYAMQNYKYDKAIVPESKNGGSPALNNNPRRSGSKRVLLICLDLFCLFMAGLPFLIIETSTIKPYHRGFYCNDESIKYPLKTGETINDAVLCAVGIVIAILAIITGEFYRIYYLKKSRSTIQNPYVAALYKQVGCFLFGCAISQSFTDIAKVSIGRLRPHFLSVCNPDFSQINCSEGYIQNYRCRGEDSKVQEARKSFFSGHASFSMYTMLYLVLYLQARFTWRGARLLRPLLQFTLIMMAFYTGLSRVSDHKHHPSDVLAGFAQGALVACCIVFFVSDLFKTKTTLSLPAPAIRKEILSPVDIIDRNNHHNMM
B2 gave a % cell aggregates, HEK cells stably expressing pLNCX2-VCIP-RGE (MT), no substance of 0%.
